Where a chain is given by its changes, count along the chain named.
T1: human BCMA on NCI-H929 cells (ATCC, CRL-9068) (human, UniProt Q02223 1-184)
T1 sequence (looked up): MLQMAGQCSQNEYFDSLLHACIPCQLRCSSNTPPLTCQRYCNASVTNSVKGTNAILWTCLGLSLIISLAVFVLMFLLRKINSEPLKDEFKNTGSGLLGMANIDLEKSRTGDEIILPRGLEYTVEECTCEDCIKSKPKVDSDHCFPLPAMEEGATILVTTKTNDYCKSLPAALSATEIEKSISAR

T2: biotinylated human BCMA-Fc, Avitag recombinant protein (ACRO Biosystems, #BC7-H82F0) (human, UniProt Q02223 1-54, biotinylated (Avitag))
T2 construct: extracellular domain; Bought protein; also called huBCMA.Fc; recombinant human BCMA-ECD-Fc
T2 sequence (looked up): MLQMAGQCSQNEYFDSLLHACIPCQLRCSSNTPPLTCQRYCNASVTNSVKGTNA

B1: PR002929 (bispecific antibody, human IgG1, lambda, L234A L235A)
light: QAVVTQEPSLTVSPGGTVTLTCRSSTGAVTTSNYANWVQQKPGQAPRGLIGGTNKRAPWTPARFSGSLLGDKAALTLLGAQPEDEAEYFCALWYSNLWVFGGGTKLTVLGQPKAAPSVTLFPPSSEELQANKATLVCLISDFYPGAVTVAWKADSSPVKAGVETTTPSKQSNNKYAASSYLSLTPEQWKSHRSYSCQVTHEGSTVEKTVAPTECS
heavy: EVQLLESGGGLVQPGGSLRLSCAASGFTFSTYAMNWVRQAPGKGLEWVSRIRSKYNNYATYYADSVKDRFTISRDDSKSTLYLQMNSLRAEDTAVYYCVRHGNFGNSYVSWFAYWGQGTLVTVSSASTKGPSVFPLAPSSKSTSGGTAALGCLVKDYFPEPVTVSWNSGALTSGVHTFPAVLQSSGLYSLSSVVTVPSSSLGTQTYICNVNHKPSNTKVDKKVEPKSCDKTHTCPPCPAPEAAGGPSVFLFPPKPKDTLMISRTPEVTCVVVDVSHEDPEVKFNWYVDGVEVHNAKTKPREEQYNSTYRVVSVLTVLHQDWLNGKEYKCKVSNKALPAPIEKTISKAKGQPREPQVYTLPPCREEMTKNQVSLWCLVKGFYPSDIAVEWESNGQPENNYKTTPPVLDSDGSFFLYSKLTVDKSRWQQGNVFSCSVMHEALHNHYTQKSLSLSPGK
chain: EVQLVETGGGLIQPGGSLRLSCAASGFTVSDNYMTWVRQAPGKGLEWVSVIFSGGNTYYADSVKGRFTISRDNAKNTLYLQMNSLRAEDTALYYCARRNYDDTRGTDVFDIWGQGTMVTVSSASEPKSSDKTHTCPPCPAPEAAGGPSVFLFPPKPKDTLMISRTPEVTCVVVDVSHEDPEVKFNWYVDGVEVHNAKTKPREEQYNSTYRVVSVLTVLHQDWLNGKEYKCKVSNKALPAPIEKTISKAKGQPREPQVCTLPPSREEMTKNQVSLSCAVKGFYPSDIAVEWESNGQPENNYKTTPPVLDSDGSFFLVSKLTVDKSRWQQGNVFSCSVMHEALHNHYTQKSLSLSPGK
B2: PR002895 (bispecific antibody, human IgG1, lambda, L234A L235A)
light: B1 light
heavy: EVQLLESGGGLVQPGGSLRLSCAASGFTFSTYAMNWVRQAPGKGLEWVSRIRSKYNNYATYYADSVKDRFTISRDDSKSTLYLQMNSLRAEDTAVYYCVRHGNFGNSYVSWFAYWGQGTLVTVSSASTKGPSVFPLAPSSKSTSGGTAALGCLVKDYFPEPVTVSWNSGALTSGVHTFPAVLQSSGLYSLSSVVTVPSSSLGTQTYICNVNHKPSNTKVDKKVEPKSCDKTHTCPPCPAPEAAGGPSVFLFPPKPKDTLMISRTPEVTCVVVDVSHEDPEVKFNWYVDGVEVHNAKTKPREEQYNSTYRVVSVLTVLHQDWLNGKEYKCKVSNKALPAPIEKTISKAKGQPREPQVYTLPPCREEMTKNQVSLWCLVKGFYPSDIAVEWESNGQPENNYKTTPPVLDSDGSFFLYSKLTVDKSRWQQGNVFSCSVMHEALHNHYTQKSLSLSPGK
chain: EVQLVETGGGLIQPGGSLRLSCAASGFTVSDNYMTWVRQAPGKGLEWVSVIFSGGNTYYADSVKGRFTISRDNAKNTLYLQMNSLRAEDTALYYCARRNYDDTRGTDVFDIWGQGTMVTVSSGGGGSGGGGSGGGGSEVQLVETGGGLIQPGGSLRLSCAASGFTVSDNYMTWVRQAPGKGLEWVSVIFSGGNTYYADSVKGRFTISRDNAKNTLYLQMNSLRAEDTALYYCARRNYDDTRGTDVFDIWGQGTMVTVSSASEPKSSDKTHTCPPCPAPEAAGGPSVFLFPPKPKDTLMISRTPEVTCVVVDVSHEDPEVKFNWYVDGVEVHNAKTKPREEQYNSTYRVVSVLTVLHQDWLNGKEYKCKVSNKALPAPIEKTISKAKGQPREPQVCTLPPSREEMTKNQVSLSCAVKGFYPSDIAVEWESNGQPENNYKTTPPVLDSDGSFFLVSKLTVDKSRWQQGNVFSCSVMHEALHNHYTQKSLSLSPGK
B3: PR002953 (bispecific antibody, human IgG1, lambda, L234A L235A)
light: B1 light
heavy: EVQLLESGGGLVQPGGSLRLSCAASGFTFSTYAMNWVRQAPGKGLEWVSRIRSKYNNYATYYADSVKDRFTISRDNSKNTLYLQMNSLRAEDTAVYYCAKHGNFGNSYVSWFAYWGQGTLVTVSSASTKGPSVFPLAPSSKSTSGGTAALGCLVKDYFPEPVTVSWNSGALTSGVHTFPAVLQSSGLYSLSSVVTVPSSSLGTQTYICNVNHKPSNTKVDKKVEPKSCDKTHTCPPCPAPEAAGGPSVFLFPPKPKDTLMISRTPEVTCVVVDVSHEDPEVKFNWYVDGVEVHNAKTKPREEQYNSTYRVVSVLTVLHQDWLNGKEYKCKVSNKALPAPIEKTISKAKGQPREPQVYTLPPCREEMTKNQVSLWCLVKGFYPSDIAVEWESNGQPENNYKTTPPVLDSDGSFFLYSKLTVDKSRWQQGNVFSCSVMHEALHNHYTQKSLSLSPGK
chain: B2 chain
B4: PR000274, anti-BCMA monoclonal antibody CA8-J6M0 (antibody, human IgG1, kappa, V domains shown)
VH: QVQLVQSGAEVKKPGSSVKVSCKASGGTFSNYWMHWVRQAPGQGLEWMGATYRGHSDTYYNQKFKGRVTITADKSTSTAYMELSSLRSEDTAVYYCARGAIYDGYDVLDNWGQGTLVTVSS
VL: DIQMTQSPSSLSASVGDRVTITCSASQDISNYLNWYQQKPGKAPKLLIYYTSNLHSGVPSRFSGSGSGTDFTLTISSLQPEDFATYYCQQYRKLPWTFGQGTKLEIKR
notes: also called Positive control 1; CA8-J6M0 hIgG1
B5: PR001046, anti-BCMA HCAb antibody (clone 1005P63B7) (antibody, human IgG1, V domains shown)
VH: EVQLVETGGGLIQPGGSLRLSCAASGFTVSDNYMTWVRQAPGKGLEWVSVIFSGGNTYYADSVKGRFTISRDNAKNTLYLQMNSLRAEDTALYYCARRNYDDTRGTDVFDIWGQGTMVTVSS
B6: PR001999 (bispecific antibody, IgG1)
chain 1: QAVVTQEPSLTVSPGGTVTLTCRSSTGAVTTSNYANWVQQKPGQAPRGLIGGTNKRAPWTPARFSGSLLGDKAALTLLGAQPEDEAEYFCALWYSNLWVFGGGTKLTVLGGGQSGQGGSGGGGSEVQLVESGGGLVQPGGSLKLSCAASGFTFNTYAMNWVRQASGKGLEWVGRIRSKYNNYATYYADSVKDRFTISRDDSKSTLYLQMNSLKTEDTAVYYCVRHGNFGNSYVSWFAYWGQGTLVTVSSASEPKSSDKTHTCPPCPAPEAAGGPSVFLFPPKPKDTLMISRTPEVTCVVVDVSHEDPEVKFNWYVDGVEVHNAKTKPREEQYNSTYRVVSVLTVLHQDWLNGKEYKCKVSNKALGAPIEKTISKAKGQPREPQVYTLPPCREEMTKNQVSLWCLVKGFYPSDIAVEWESNGQPENNYKTTPPVLDSDGSFFLYSKLTVDKSRWQQGNVFSCSVMHEALHNHYTQKSLSLSPGK
chain 2: EVQLLESGGGLVQPGGSLRLSCAASGFTFSSYAMIWVRQAPGKGLEWVSGISESGGSTYYADSVKGRFTISRDNSKNTLYLQMNSLRAEDTAVYFCVKDLDDILTGYYKDYWGQGTLVTVSSASEPKSSDKTHTCPPCPAPEAAGGPSVFLFPPKPKDTLMISRTPEVTCVVVDVSHEDPEVKFNWYVDGVEVHNAKTKPREEQYNSTYRVVSVLTVLHQDWLNGKEYKCKVSNKALGAPIEKTISKAKGQPREPQVCTLPPSREEMTKNQVSLSCAVKGFYPSDIAVEWESNGQPENNYKTTPPVLDSDGSFFLVSKLTVDKSRWQQGNVFSCSVMHEALHNHYTQKSLSLSPGK
notes: IgG1 knob/hole, AAG
B7: PR002000 (bispecific antibody, IgG1)
chain 1: B6 chain 1
chain 2: EVQLVETGGGLIQPGGSLRLSCAASGFPVSSNYMSWVRQAPGKGLEWVSVIFSGGRTYYADSVKGRFTISRDNSKNTLYLQMNSLRAEDTAVYYCARRNWIDGRDAFDIWGQGTMVTVSSASEPKSSDKTHTCPPCPAPEAAGGPSVFLFPPKPKDTLMISRTPEVTCVVVDVSHEDPEVKFNWYVDGVEVHNAKTKPREEQYNSTYRVVSVLTVLHQDWLNGKEYKCKVSNKALGAPIEKTISKAKGQPREPQVCTLPPSREEMTKNQVSLSCAVKGFYPSDIAVEWESNGQPENNYKTTPPVLDSDGSFFLVSKLTVDKSRWQQGNVFSCSVMHEALHNHYTQKSLSLSPGK
notes: Structure 20 (scFv(VL-VH)-Fc-VH): CD3 scFv from PR000510, BCMA VH from PR000943; IgG1 knob/hole, AAG
B8: PR002002 (bispecific antibody, IgG1)
chain 1: B6 chain 1
chain 2: B1 chain with P238G
notes: Structure 20 (scFv(VL-VH)-Fc-VH): CD3 scFv from PR000510, BCMA VH from PR001046; IgG1 knob/hole, AAG
B9: PR000260, anti-CD3 monoclonal antibody SP34 (hIgG1 chimeric antibody) (antibody, V domains shown)
VH: EVQLVESGGGLVQPKGSLKLSCAASGFTFNTYAMNWVRQAPGKGLEWVARIRSKYNNYATYYADSVKDRFTISRDDSQSILYLQMNNLKTEDTAMYYCVRHGNFGNSYVSWFAYWGQGTLVTVSA
VL: QAVVTQESALTTSPGETVTLTCRSSTGAVTTSNYANWVQEKPDHLFTGLIGGTNKRAPGVPARFSGSLIGDKAALTITGAQTEDEAIYFCALWYSNLWVFGGGTKLTVLG

Biological target: T3, human CD3 (TCR/CD3 complex) on human T cells (human, UniProt P07766 23-207)
T3 construct: whole, on cells
T3 sequence (P07766 23-207, one chain of several): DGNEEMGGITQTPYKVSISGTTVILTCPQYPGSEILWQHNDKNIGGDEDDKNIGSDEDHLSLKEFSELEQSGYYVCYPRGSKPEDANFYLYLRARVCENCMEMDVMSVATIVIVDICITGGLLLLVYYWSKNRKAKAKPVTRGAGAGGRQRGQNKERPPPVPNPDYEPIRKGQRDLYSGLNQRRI
Assay: flow cytometry (FACS) on human T cells, Experiment 3

Binder | Maximum MFI [MFI]
B1 | 283000
B2 | 322000
B3 | 17000

Biological target: T4, cynomolgus monkey BCMA (ACRO Biosystems, #BCA-C82F4) (cynomolgus monkey, UniProt A0A2K5UD97 1-53)
T4 construct: Bought protein; also called cyBCMA.Fc
T4 sequence (A0A2K5UD97 entry or part of it): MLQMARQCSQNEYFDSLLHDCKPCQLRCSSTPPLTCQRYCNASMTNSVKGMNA
Assay: BLI; KD for cynomolgus monkey BCMA divided by KD for human BCMA

Binder | KD ratio (cy BCMA/hu BCMA)
B1 | 1.11
B2 | 1.38
B3 | 0.87
B4 | 0.06
B5 | 1.54

Biological target: T1, human BCMA on NCI-H929 cells (ATCC, …)
Assay: cell-based or functional assay

Binder | IFN-γ release, EC50 [nM] | IFN-γ release, Maximum [pg/mL] | IL-2 release, EC50 [nM] | IL-2 release, Maximum [pg/mL] | IL-6 release, EC50 [nM] | IL-6 release, Maximum [pg/mL] | IL-10 release, EC50 [nM] | IL-10 release, Maximum [pg/mL] | NCI-H929 killing, EC50 [nM] | NCI-H929 killing, Maximum killing rate % [%]
B2 | 0.0223 | 1440 | 0.0211 | 100 | 0.00839 | 118 | 0.0134 | 240 | 0.00293 | 57.9
B3 | 0.212 | 640 | 0.795 | 23.6 | 0.128 | 68.5 | 0.208 | 129 | 0.047 | 57.5

Same assay, conditions: not given

Binder | TNF-α release, EC50 [nM] | TNF-α release, Maximum [pg/mL]
B2 | 0.00818 | 1280
B3 | 0.197 | 894

Biological target: T4, cynomolgus monkey BCMA (ACRO …)
Assay: BLI (Octet Red96e), cyBCMA.Fc on SA sensor, 1:1 global fitting

Binder | Kd [nM] | koff [s⁻¹] | kon [M⁻¹ s⁻¹]
B1 | 6.62 | 0.00582 | 879000
B2 | 0.272 | 0.000242 | 890000
B3 | 0.195 | 7.12e-05 | 365000
B4 | 0.0388 | 7.76e-06 | 200000
B5 | 0.119 | 7.54e-05 | 633000

Biological target: T5, cynomolgus monkey CD3 (TCR/CD3 complex) on cynomolgus monkey T cells (cynomolgus monkey)
T5 construct: whole, on cells
T5 sequence (Q95LI5 22-198, one chain of several): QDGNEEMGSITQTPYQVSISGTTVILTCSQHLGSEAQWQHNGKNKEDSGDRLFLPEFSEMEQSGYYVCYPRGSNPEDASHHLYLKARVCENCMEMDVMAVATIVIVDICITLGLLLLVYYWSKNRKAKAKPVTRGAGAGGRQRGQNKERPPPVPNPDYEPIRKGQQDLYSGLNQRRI
Assay: flow cytometry (FACS) on cynomolgus monkey T cells

Binder | Maximum MFI [MFI]
B1 | 10100
B2 | 18600
B3 | 9710

Biological target: T3, human CD3 (TCR/CD3 complex) on human T …
Assay: flow cytometry (FACS) on human T cells, Experiment 2

Binder | Maximum MFI [MFI]
B6 | 1170
B7 | 1730
B8 | 1120
B9 | 6030

Biological target: T3, human CD3 (TCR/CD3 complex) on human T …
Assay: flow cytometry (FACS) on human T cells, Experiment 1

Binder | Maximum MFI [MFI]
B9 | 7160

Biological target: T2, biotinylated human BCMA-Fc, Avitag …
Assay: BLI (Octet Red96e), biotinylated BCMA-Fc on SA sensor, 1:1 global fitting;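 further: Anti-BCMA antibodies analysed as binding partners of the captured BCMA antigen, with reference signals removed by double referencing before kinetic fitting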

Binder | Kd [nM] | koff [s⁻¹] | kon [M⁻¹ s⁻¹]
B1 | 5.95 | 0.00148 | 249000
B2 | 0.197 | 8.11e-05 | 412000
B3 | 0.225 | 0.000107 | 474000
B4 | 0.655 | 0.000135 | 206000
B5 | 0.0775 | 3.56e-05 | 459000

From patent US20230322953A1 (HARBOUR BIOMED SHANGHAI, published 2023)
